Positions count from the first letter of the chain named. Names and notes keep the numbering of the source.
T1: TNFR1 (Homo sapiens, UniProt P19438)
T1 chain: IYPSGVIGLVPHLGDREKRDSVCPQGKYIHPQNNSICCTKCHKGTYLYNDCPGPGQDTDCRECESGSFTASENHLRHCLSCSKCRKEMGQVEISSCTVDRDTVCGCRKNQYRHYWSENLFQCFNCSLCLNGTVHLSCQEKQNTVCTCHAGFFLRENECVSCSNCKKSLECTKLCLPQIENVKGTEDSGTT

B1: K64A (designed binder)
chain: SMEEEVEKAAKEYEKKKKEAIEKHLEKLKAKDKEAAERFLKELEEAAKEYAKDEAKTMSEEEAARRAKKYKEKVLLSELSEEEQKEIKEAEEKLVRTILKYVEEAAK
B2: E42I (designed binder)
chain: B1 chain with E42I, A64K
B3: V74S (designed binder)
chain: B1 chain with A64K, V74S
B4: V95Q (designed binder)
chain: B1 chain with A64K, V95Q
B5: A30G (designed binder)
chain: B1 chain with A30G, A64K
B6: A46K (designed binder)
chain: B1 chain with A46K, A64K
B7: V95H (designed binder)
chain: B1 chain with A64K, V95H
B8: R38Y (designed binder)
chain: B1 chain with R38Y, A64K
B9: A9K (designed binder)
chain: B1 chain with A9K, A64K
B10: L76Y (designed binder)
chain: B1 chain with A64K, L76Y
B11: E92D (designed binder)
chain: B1 chain with A64K, E92D
B12: A20K (designed binder)
chain: B1 chain with A20K, A64K
B13: E7Y (designed binder)
chain: B1 chain with E7Y, A64K
B14: E54H (designed binder)
chain: B1 chain with E54H, A64K
B15: K27H (designed binder)
chain: B1 chain with K27H, A64K
B16: K8M (designed binder)
chain: B1 chain with K8M, A64K
B17: K16S (designed binder)
chain: B1 chain with K16S, A64K
B18: K107Y (designed binder)
chain: B1 chain with A64K, K107Y
B19: A36N (designed binder)
chain: B1 chain with A36N, A64K
B20: E4F (designed binder)
chain: B1 chain with E4F, A64K
B21: L79E (designed binder)
chain: B1 chain with A64K, L79E
B22: K29N (designed binder)
chain: B1 chain with K29N, A64K
B23: T57A (designed binder)
chain: B1 chain with T57A, A64K
B24: E61H (designed binder)
chain: B1 chain with E61H, A64K
B25: E5S (designed binder)
chain: B1 chain with E5S, A64K
B26: D32T (designed binder)
chain: B1 chain with D32T, A64K
B27: A10P (designed binder)
chain: B1 chain with A10P, A64K
B28: E12H (designed binder)
chain: B1 chain with E12H, A64K
B29: Y70F (designed binder)
chain: B1 chain with A64K, Y70F
B30: E83M (designed binder)
chain: B1 chain with A64K, E83M
B31: E4W (designed binder)
chain: B1 chain with E4W, A64K
B32: Y13L (designed binder)
chain: B1 chain with Y13L, A64K
B33: L94D (designed binder)
chain: B1 chain with A64K, L94D
B34: S77K (designed binder)
chain: B1 chain with A64K, S77K
B35: E91M (designed binder)
chain: B1 chain with A64K, E91M
B36: E19C (designed binder)
chain: B1 chain with E19C, A64K
B37: S80R (designed binder)
chain: B1 chain with A64K, S80R
B38: A105G (designed binder)
chain: B1 chain with A64K, A105G
B39: K15V (designed binder)
chain: B1 chain with K15V, A64K
B40: E104A (designed binder)
chain: B1 chain with A64K, E104A
B41: A105L (designed binder)
chain: B1 chain with A64K, A105L
B42: S80I (designed binder)
chain: B1 chain with A64K, S80I
B43: V74Y (designed binder)
chain: B1 chain with A64K, V74Y
B44: K31G (designed binder)
chain: B1 chain with K31G, A64K
B45: K71I (designed binder)
chain: B1 chain with A64K, K71I
B46: K18M (designed binder)
chain: B1 chain with K18M, A64K
B47: V6L (designed binder)
chain: B1 chain with V6L, A64K
B48: K33N (designed binder)
chain: B1 chain with K33N, A64K
B49: D53W (designed binder)
chain: B1 chain with D53W, A64K
B50: E37T (designed binder)
chain: B1 chain with E37T, A64K
B51: S77L (designed binder)
chain: B1 chain with A64K, S77L
B52: T97N (designed binder)
chain: B1 chain with A64K, T97N
B53: F39K (designed binder)
chain: B1 chain with F39K, A64K
B54: K85V (designed binder)
chain: B1 chain with A64K, K85V
B55: M2L (designed binder)
chain: B1 chain with M2L, A64K
B56: E61Y (designed binder)
chain: B1 chain with E61Y, A64K
B57: R96V (designed binder)
chain: B1 chain with A64K, R96V
B58: K17H (designed binder)
chain: B1 chain with K17H, A64K
B59: A35T (designed binder)
chain: B1 chain with A35T, A64K

Molecular target: T1, TNFR1
Assay: yeast display SC50

Row | apparent Kd (screen) [nM] | Binder
1 | 0.956 | B1
2 | 6.43 | B2
3 | 22.2 | B3
4 | 11.4 | B4
5 | 0.956 | B5
6 | 4.39 | B6
7 | 11.4 | B7
8 | 0.49 | B8
9 | 0.446 | B9
10 | 2.05 | B10
11 | 0.446 | B11
12 | 0.446 | B12
13 | 7.07 | B13
14 | 12.5 | B14
15 | 0.446 | B15
16 | 1.05 | B16
17 | 3 | B17
18 | 2.73 | B18
19 | 2.73 | B19
20 | 1.69 | B20

Row | apparent Kd (screen) [nM] | Binder
21 | 18.3 | B21
22 | 0.539 | B22
23 | 2.73 | B23
24 | 1.54 | B24
25 | 0.593 | B25
26 | 1.4 | B26
27 | 11.4 | B27
28 | 0.49 | B28
29 | 12.5 | B29
30 | 0.446 | B30
31 | 1.54 | B31
32 | 1.86 | B32
33 | 1.86 | B33
34 | 4.83 | B34
35 | 11.4 | B35
36 | 0.446 | B36
37 | 0.593 | B37
38 | 0.446 | B38
39 | 1.05 | B39
40 | 0.79 | B40

Row | apparent Kd (screen) [nM] | Binder
41 | 1.86 | B41
42 | 1.69 | B42
43 | 9.41 | B43
44 | 0.653 | B44
45 | 0.539 | B45
46 | 1.05 | B46
47 | 3 | B47
48 | 1.05 | B48
49 | 10.4 | B49
50 | 0.539 | B50
51 | 7.07 | B51
52 | 1.16 | B52
53 | 8.56 | B53
54 | 1.05 | B54
55 | 1.05 | B55
56 | 1.86 | B56
57 | 0.869 | B57
58 | 0.869 | B58
59 | 0.593 | B59
